This is an account of results in patent US20230390418A1, “[…] XII ANTIBODIES AND ADMINISTRATION THEREOF” (REGENXBIO INC., priority 2020, published 2023).

The target in assay [1] is activated human plasma kallikrein (Enzyme Research Laboratories) (human) (UniProt P03952). Nature of the assay: cell-based or functional assay.
Assay [2] deals with carrageenan-induced paw edema. As to the kind of experiment: Carrageenan paw edema model in mice (paw volume, plethysmometer). Type of assay: in vivo. Conditions: C57BL/6 mice, vectors 21 days, Diclofenac 30 minutes prior to carrageenan. The source says:
Inflammation models induced by carrageenan are frequently used acute inflammation models. Carrageenan (Cg) is a strong chemical agent that functions in stimulating the release of inflammatory and proinflammatory mediators, including bradykinin, histamine, tachykinins, reactive oxygen, and nitrogen species. Typical signs of inflammation include edema, hyperalgesia, and erythema, which develop immediately following the treatment of carrageenan. This example evaluated the effect of AAV-mediated gene delivery of Lanadelumab on carrageenan-induced paw edema in mice.
In total eighty young adult (8-9 weeks old) male C57BL/6 mice were used for this study. Paw edema was induced by a single subcutaneous (s.c.) injection of 30 μL of 0.7% or 1% carrageenan solution. Test vectors and positive control Diclofenac were administered at 21 days and 30 minutes prior to carrageenan treatment. Blood was collected before vectors injection and at 7 and 21 days post injection from mice in groups 1, 3, 4, 5, 7 and 8. Paw volume was measured using a digital Plethysmometer prior to carrageenan injection, and at 2, 4, 6, 8, 24 and 48 hours after injection. All animals were sacrificed 48 hours after carrageenan injection. Liver and paw specimens were also collected at the necropsy.
(In general: Carrageenan injected into the paw causes an acute inflammation.)

For assay [3], the target named is T1, activated human plasma kallikrein (Homo sapiens, UniProt P03952).
T1 construct: purchased Enzyme Research Laboratories
As to the kind of experiment: In vitro pKal functional assay (fluorogenic PFR-AMC substrate). It counts as biochemical. The procedure: In order to measure pKal function of lanadelumab derived from mouse serum following AAV-lanadelumab administration, a fluorescence-based kinetic enzymatic functional assay was performed. First, activated human plasma kallikrein (Enzyme Research Laboratories) was diluted in sample dilution buffer (SDB; 1×PBS, 3% BSA, 0.1% Tween-20) to top concentration of 100 nM. This pKal was two-fold serially diluted for a total of 12 concentrations in the dilution series (100 nM-0.05 nM). From each dilution, and in duplicate, […], was placed in one well of a 96-well, opaque flat-bottomed plate along with […], of SDB. […] The samples were immediately run in kinetic mode for AMC fluorescence at excitation/emission wavelengths of 380/460 nm, respectively, for 3 hours using a SpectraMax 3 fluorescent plate reader.
The signal-to-noise ratio for each pKal concentration RFU (last RFU fluorescent value chosen) was calculated by dividing its RFU by background PFR-AMC substrate fluorescence. […] Antibody-pKal mixture was then given PFR-AMC and immediately run in kinetic mode for AMC fluorescence at excitation/emission wavelengths of 380/460 nm, respectively, for 3 hours using a SpectraMax fluorescent plate reader.
In vitro pKal functional assay. […] Total antibody concentration was measured using a Nanodrop spectrophotometer, with OD absorbance=280 nm. […]

T1 sequence (P03952 391-638 limits assumed): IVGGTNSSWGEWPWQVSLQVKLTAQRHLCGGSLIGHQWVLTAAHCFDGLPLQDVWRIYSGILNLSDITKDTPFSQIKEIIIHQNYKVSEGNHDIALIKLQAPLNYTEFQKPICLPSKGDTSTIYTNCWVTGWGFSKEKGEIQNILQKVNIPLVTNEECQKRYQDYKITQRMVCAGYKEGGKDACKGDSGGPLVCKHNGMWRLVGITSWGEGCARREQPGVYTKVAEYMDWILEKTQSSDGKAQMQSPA
T1 sequence (P03952 20-390 limits assumed): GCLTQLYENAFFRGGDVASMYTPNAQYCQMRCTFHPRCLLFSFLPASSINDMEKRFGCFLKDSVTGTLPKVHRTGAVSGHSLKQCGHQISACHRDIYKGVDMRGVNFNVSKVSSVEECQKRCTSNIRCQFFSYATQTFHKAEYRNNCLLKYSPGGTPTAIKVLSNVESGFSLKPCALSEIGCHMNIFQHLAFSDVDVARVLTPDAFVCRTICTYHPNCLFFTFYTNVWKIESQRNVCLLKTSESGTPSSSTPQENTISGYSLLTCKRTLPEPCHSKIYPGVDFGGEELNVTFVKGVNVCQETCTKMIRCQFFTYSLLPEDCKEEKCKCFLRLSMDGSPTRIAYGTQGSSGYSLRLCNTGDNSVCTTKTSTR

Lanadelumab (GenScript) (antibody) showed a suppression of pKal activity (PFR-AMC fluorogenic substrate, kinetic AMC fluorescence) in assay [1] of 0.1 nM. With `O=C(O)Cc1ccccc1Nc1c(Cl)cccc1Cl` [diclofenac, Diclofenac], the “Paw volume versus vehicle control” value is “a significant decrease on paw volume was observed only at 4 and 24 hours post injection” in assay [2] (0.7% carrageenan model); “significantly decreased the paw volume at 2, 4, 6, 8 and 24 hours post carrageenan injection” in assay [2] (1.0% carrageenan model).

The molecule “Vectorized lanadelumab derived from mouse serum following AAV-lanadelumab administration (antibody)” had a percent reduction in pKal activity (serum diluted 1:25, day 49 post-administration against day -7; PFR-AMC assay) in assay [1] of 50%.

B1: lanadelumab: human anti-pKal (anti-kallikrein) IgG antibody; purified (GenScript) or produced in serum via AAV-mediated gene delivery (antibody)
heavy: EVQLLESGGGLVQPGGSLRLSCAASGFTFSHYIMMWVRQAPGKGLEWVSGIYSSGGITVYADSVKGRFTISRDNSKNTLYLQMNSLRAEDTAVYYCAYRRIGVPRRDEFDIWGQGTMVTVSSASTKGPSVFPLAPSSKSTSGGTAALGCLVKDYFPEPVTVSWNSGALTSGVHTFPAVLQSSGLYSLSSVVTVPSSSLGTQTYICNVNHKPSNTKVDKRVEPKSCDKTHTCPPCPAPELLGGPSVFL
light: DIQMTQSPSTLSASVGDRVTITCRASQSISSWLAWYQQKPGKAPKLLIYKASTLESGVPSRFSGSGSGTEFTLTISSLQPDDFATYYCQQYNTYWTFGQGTKVEIKRTVAAPSVFIFPPSDEQLKSGTASVVCLLNNFYPREAKVQWKVDNALQSGNSQESVTEQDSKDSTYSLSSTLTLSKADYEKHKVYACEVTHQGLSSPVTKSFNRGEC
modifications: Lanadelumab Heavy; misc (227)..(230) amino acids 227 to 230 are present or absent; misc (231)..(236) amino acids 231 to 236 are present or absent; misc (237)..(247) amino acids 237 to 247 are present or absent; Lanadelumab Light
notes: human anti-pKal (anti-kallikrein) IgG antibody; purified (GenScript) or produced in serum via AAV-mediated gene delivery
Turning to B1, the “Suppression of human pKal function by purified total IgG from mouse serum” value in assay [3] (IgG purified from day 49 post-administration serum versus day −7) is “suppressed human pKal function”. Moreover, the “Lowest in-well concentration with noticeable suppression of pKal activity” value in assay [3] (purified antibody, defined enzyme concentration) came to 0.1 nM. Moreover, the “Paw volume versus vehicle control” value in assay [2] (1.0% carrageenan model) is “significantly reduces the severity of inflammation”.
